From article doi:10.1101/681668 (bioRxiv, 2019)
Changes are numbered by the printed parent chain.

Legend:
Test in all cases: pull-down
MBP-ORC1 R105Q = molecular target: T1, MBP-ORC1 R105Q (human, UniProt Q13415 1-861, R105Q)
T1 sequence: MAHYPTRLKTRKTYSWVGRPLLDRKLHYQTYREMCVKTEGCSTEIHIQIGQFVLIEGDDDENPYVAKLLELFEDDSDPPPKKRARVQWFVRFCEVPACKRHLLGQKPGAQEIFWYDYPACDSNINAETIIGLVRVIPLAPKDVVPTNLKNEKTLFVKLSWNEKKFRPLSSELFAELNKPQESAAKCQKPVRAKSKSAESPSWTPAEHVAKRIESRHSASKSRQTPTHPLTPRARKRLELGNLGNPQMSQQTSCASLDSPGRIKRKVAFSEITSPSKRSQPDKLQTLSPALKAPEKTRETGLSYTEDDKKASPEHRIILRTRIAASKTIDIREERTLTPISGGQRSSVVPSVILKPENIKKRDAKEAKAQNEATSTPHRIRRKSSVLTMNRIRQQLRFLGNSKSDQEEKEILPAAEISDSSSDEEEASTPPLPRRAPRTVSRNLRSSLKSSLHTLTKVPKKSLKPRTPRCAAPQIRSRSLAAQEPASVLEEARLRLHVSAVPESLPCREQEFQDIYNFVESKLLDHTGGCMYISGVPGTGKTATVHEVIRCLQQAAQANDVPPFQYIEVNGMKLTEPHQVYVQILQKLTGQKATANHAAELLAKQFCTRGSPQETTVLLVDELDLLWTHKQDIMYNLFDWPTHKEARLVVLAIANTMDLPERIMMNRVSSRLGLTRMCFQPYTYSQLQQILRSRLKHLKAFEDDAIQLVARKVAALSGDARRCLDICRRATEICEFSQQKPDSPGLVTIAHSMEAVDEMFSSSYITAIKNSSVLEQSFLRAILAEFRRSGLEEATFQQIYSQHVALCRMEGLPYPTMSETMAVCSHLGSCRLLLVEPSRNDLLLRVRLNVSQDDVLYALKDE

MBP-ORC1 CDK3 = molecular target: T2, MBP-ORC1 CDK3 (human, UniProt Q13415 1-861, T375A)
T2 sequence: T1 sequence with Q105R, T375A

MBP-ORC1 = molecular target: T3, MBP-ORC1 (human, UniProt Q13415 1-861)
T3 sequence: T1 sequence with Q105R

Measured: binding result

B1: GST-CDC6 (natural protein)
chain: MPQTRSQAQATISFPKRKLSRALNKAKNSSDAKLEPTNVQTVTCSPRVKALPLSPRKRLGDDNLCNTPHLPPCSPPKQGKKENGPPHSHTLKGRRLVFDNQLTIKSPSKRELAKVHQNKILSSVRKSQEITTNSEQRCPLKKESACVRLFKQEGTCYQQAKLVLNTAVPDRLPAREREMDVIRNFLREHICGKKAGSLYLSGAPGTGKTACLSRILQDLKKELKGFKTIMLNCMSLRTAQAVFPAIAQEICQEEVSRPAGKDMMRKLEKHMTAEKGPMIVLVLDEMDQLDSKGQDVLYTLFEWPWLSNSHLVLIGIANTLDLTDRILPRLQAREKCKPQLLNFPPYTRNQIVTILQDRLNQVSRDQVLDNAAVQFCARKVSAVSGDVRKALDVCRRAIEIVESDVKSQTILKPLSECKSPSEPLIPKRVGLIHISQVISEVDGNRMTLSQEGAQDSFPLQQKILVCSLMLLIRQLKIKEVTLGKLYEAYSKVCRKQQVAAVDQSECLSLSGLLEARGILGLKRNKETRLTKVFFKIEEKEIEHALKDKALIGNILATGLP
binds: MBP-ORC1 R105Q | MBP-ORC1 CDK3 | MBP-ORC1
